We go through two molecules from patent publication US20260209365A1, “ANTI-COMMON GAMMA CHAIN PROTEINS AND COMPOSITIONS OF MATTER” (SINOMAB BIOSCIENCE LIMITED, priority 2023, published 2026).

Changes are numbered by the printed parent chain.

The test system of one data set is common marmoset γc. The experiment in a line: BLI binding kinetics to common marmoset γc protein. Set-up: species or system common marmoset (Callithrix jacchus). As to the method:
(§1) Full-length humanized antibodies were evaluated by BLI to access their binding kinetics. The binding activities of full-length anti-γc antibody were investigated using γc proteins (extracellular domain) from human and common marmoset (either purchased or in-house generated). Briefly, anti-γc antibody (20 μg/mL) was immobilized on biosensors via interactions with anti-human IgG; serially diluted γc proteins (at a concentration of 158.7 nM, 79.4 Nm, 39.7n M and 0 nM respectively) were subsequently added following standard operation protocols of the Octet ReD96 system to plot out the association and dissociation curve. Irrelevant antibody (SM03, anti-human CD22 chimeric IgG1 antibody, SinoMab BioScience Limited) was used as the control reference. The KD is within the picomolar-single digit nanomolar range.
On the technique in general: In BLI a coated tip is dipped into the sample, and binding shifts an interference pattern.

The next data set concerns the target T1, γc proteins from human (Homo sapiens, UniProt P31785).
T1 construct: extracellular domain of human γc protein (amino acids: 1-262); host or cells: Expi-CHO (e.g.)
T1 sequence (P31785 23-262): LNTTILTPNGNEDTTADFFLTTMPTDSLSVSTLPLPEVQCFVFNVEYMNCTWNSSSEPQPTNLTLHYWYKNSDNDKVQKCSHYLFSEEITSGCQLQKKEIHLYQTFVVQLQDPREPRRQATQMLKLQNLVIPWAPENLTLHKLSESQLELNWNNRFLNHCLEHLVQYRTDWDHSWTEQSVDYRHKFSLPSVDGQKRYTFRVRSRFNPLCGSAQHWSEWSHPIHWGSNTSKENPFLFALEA
The data set is described as follows: ELISA binding of full-length antibodies to human γc. Particulars: humanized antibodies with back-mutation. Here is the method:
(§2) Selected clones of full-length antibodies were evaluated by ELISA to access the binding specificity. The binding activities of full-length anti-γc antibody were investigated using γc proteins (extracellular domain) from human (SEQ ID NO: 205-206), cynomolgus (Sequence ID: XP_005593949.1, SEQ ID NO: 207-208) and chimpanzee (Sequence ID: XP_008971810.1, SEQ ID NO: 209-210) either purchased from Sino Biological or in-house generated.
(§3) Humanized antibodies with back-mutation (hSM-05A and hSM-05E) were tested in the following assays. Binding affinities were investigated in the ELISA assays.
On the technique in general: An ELISA detects its analyte on a solid surface through an enzyme-linked reagent.

Another data set has as its target T2, human γc protein (Homo sapiens, UniProt P31785).
T2 construct: endogenous in cells; host or cells: Ramos B cells
T2 sequence (P31785 23-369): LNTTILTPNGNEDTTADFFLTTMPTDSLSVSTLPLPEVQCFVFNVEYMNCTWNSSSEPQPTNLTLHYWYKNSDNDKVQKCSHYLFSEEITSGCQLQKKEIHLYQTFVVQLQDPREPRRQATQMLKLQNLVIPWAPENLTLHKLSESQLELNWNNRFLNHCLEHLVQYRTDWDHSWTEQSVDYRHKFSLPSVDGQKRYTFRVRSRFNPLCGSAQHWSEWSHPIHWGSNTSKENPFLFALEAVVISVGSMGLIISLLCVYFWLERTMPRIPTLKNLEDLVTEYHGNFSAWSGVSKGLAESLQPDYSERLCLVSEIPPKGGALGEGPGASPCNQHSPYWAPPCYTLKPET
The data set is described as follows: Competition assay on Ramos B cells, flow cytometry. The class given is binding. The conditions noted are these: unconjugated hSM-05A then FITC-conjugated hSM-05E, 33 nM. As to the method:
Purified anti-γc antibodies were conjugated to FITC fluorescent dye and used for the competition assay. In brief, human γc expressing Ramos B cells were first labelled with unconjugated hSM-05A for an hour before further incubation with FITC-conjugated hSM-05E.
For orientation: Flow cytometry measures light scatter and fluorescence of single cells or particles in a stream.

The target in the next data set is T3, human γc proteins (Homo sapiens, UniProt P31785).
T3 construct: extracellular domain of human γc protein (amino acids: 1-262); host or cells: Expi-CHO (e.g.)
T3 sequence (P31785 23-262): T1 sequence (P31785 23-262)
The experiment in a line: BLI binding kinetics to human γc protein. As to the method: as §1

Data set [1] deals with γc proteins from chimpanzee. The data set is described as follows: ELISA binding of full-length antibodies to chimpanzee γc. Details: species or system chimpanzee (Pan troglodytes). Particulars: humanized antibodies with back-mutation. Here is the method:
as §2, §3

In a further data set the test system is IL-21 induced p-STAT3. The experiment in a line: Suppression of p-STAT in PBMC, IL-21. The class given is cell-based, human. The conditions noted are these: antibody 10 μg/ml, compared to isotype control. Here is the method: (§4) Given numbers refer to the percentage of inhibition compared to isotype control stimulated with respective γc cytokine. Antibody concentration is 10 μg/ml.

For the next data set, the system named is IL-15 induced p-STAT5. The data set is described as follows: Suppression of p-STAT in PBMC, IL-15. The class given is cell-based, human. Particulars: antibody 10 μg/ml, compared to isotype control. Here is the method:
as §4

Data set [2] has as its system HaCaT cells. The experiment in a line: ADCC assay on HaCaT cells with human PBMC. The class given is cell-based. Particulars: 33 nM (5 μg/ml), vs isotype antibody. As to the method: (§5) γc expressing human keratinocyte HaCaT cell line was utilized as the target cells in ADCC and CDC assays. To determine the ADCC activity, HaCaT cell was pre-binded with anti-γc antibodies before co-culture with human PBMC. To determine the CDC activity, HaCaT cell was pre-binded with anti-γc antibodies before incubation with low-endotoxin complement proteins extracted from guinea pig. ADCC was determined by percentage of PI+ HaCaT cells in flow cytometry analysis while CDC was measured by the WST-8 proliferative assay of HaCaT cells in a 96-well plate (FIG. 22A).

The next data set has as its target T4, mouse γc (Mus musculus, UniProt P34902).
T4 construct: 6×His (C)
T4 sequence (P34902 with tags, fused parts or gaps): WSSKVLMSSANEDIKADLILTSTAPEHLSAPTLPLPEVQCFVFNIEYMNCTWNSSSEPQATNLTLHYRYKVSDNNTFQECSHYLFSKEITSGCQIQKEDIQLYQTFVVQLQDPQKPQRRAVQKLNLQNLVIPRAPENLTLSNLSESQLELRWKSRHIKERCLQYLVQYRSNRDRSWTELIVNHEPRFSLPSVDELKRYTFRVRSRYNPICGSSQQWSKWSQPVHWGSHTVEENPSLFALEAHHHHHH
The data set is described as follows: BLI binding kinetics to mouse γc protein.

The subject of another data set is cynomolgus γc. The data set is described as follows: BLI binding kinetics to cynomolgus γc protein. Details: species or system cynomolgus (Macaca fascicularis).
For data set [3], the system named is HaCaT cells. The data set is described as follows: CDC assay on HaCaT cells with complement. Format: cell-based, human. Particulars: 33 nM (5 μg/ml), vs isotype antibody. Here is the method: as §5
Data set [4] in a line: Structural stability by SEC-HPLC. Format: physicochemical. Particulars: for purity by SEC-HPLC after incubation: 12 days after PBS exchange at RT and 37° C. As to the method:
Next, structural stabilities of hSM-05A and hSM-05E were studied by incubation at either room temperature or 37° C. for around 2 weeks. SEC-HPLC was utilized to measure aggregates and degradation of antibodies. […] No degradation of the antibodies was observed aft er 2 weeks.

Setting [5] is: room temperature or 37° C. for around 2 weeks.

Chain of cynomolgus γc (as listed by the source): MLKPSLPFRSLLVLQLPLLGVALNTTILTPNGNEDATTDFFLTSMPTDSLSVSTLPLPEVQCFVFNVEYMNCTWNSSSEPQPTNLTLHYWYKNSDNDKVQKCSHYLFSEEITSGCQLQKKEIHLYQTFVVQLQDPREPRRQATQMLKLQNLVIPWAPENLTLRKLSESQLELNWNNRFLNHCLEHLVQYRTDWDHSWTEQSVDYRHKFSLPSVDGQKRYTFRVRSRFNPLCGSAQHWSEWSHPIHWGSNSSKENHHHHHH
Chain of common marmoset γc (as listed by the source): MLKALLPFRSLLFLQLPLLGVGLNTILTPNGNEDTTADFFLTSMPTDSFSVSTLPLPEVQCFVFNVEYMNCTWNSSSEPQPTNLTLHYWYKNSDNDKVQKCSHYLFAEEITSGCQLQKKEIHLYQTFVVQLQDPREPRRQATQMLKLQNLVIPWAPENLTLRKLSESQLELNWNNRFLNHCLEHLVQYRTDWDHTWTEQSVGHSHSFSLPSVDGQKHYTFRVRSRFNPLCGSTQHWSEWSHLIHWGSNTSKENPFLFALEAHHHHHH
Chain of γc proteins from chimpanzee (as listed by the source): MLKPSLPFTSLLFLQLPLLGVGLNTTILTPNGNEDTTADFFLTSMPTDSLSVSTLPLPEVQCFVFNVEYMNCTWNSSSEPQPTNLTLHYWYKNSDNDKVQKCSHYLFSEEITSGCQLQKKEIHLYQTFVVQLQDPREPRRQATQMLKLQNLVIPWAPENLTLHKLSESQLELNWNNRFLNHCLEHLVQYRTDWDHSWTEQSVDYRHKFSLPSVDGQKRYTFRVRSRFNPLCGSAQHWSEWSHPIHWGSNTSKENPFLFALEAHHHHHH

B1: hSM-05A: full-length humanized anti-γc antibody derived from SM-05A by framework patching (antibody, V domains shown)
VH: QVQLVQSGAEVLKPGASVKVSCKASGYTFTEYTMHWVKQARGQRLEWIGGIDPYNGGATYNQRFKGKATLTTDTSTSTAYMELRNLRSDDTAVYYCARRRLYYGNALDYWGQGTLVTVSS
VL: DIVMTQSPLSLPVTPGEQASISCRSSQSLVHSNGNTYLHWYLQKPGQSPQLLIYKVSSRFSGVPDRFSGSGSGTDFTLKISRVEAEDVGVYFCSQTTHVPFTFGSGTKLEIKR
B1: the “Ka” value is 300000 M⁻¹ s⁻¹ in the data set with common marmoset γc; 119000 M⁻¹ s⁻¹ with human γc proteins (Experiment 1); 175000 M⁻¹ s⁻¹ with human γc proteins (Experiment 2); 6580 M⁻¹ s⁻¹ with mouse γc; 22500 M⁻¹ s⁻¹ with cynomolgus γc. Moreover, the “Kdis” value in the data set on common marmoset γc is 0.00121 s⁻¹; with human γc proteins (Experiment 1), 0.000319 s⁻¹; in the data set with human γc proteins (Experiment 2), 0.00144 s⁻¹; with mouse γc, 0.000712 s⁻¹; with cynomolgus γc, 0.00683 s⁻¹. Moreover, the “ELISA binding to human γc” value with γc proteins from human was “retained the binding affinity and specificity”. Further, in the data set with human γc protein, the “epitope competition between hSM-05A and hSM-05E” value is listed as “could compete on a similar epitope on the human γc protein”. In [1], the “ELISA binding to chimpanzee γc” value was “retained the binding affinity and specificity”. Besides, the “IL-21 induced p-STAT3, percentage of inhibition” value in the data set on IL-21 induced p-STAT3 is 82.80%. For the same molecule, in the data set on IL-15 induced p-STAT5, the “IL-15 induced p-STAT5, percentage of inhibition” value is listed as 100%. Besides, the ADCC activity entry in the data set on HaCaT cells [2] is listed as “could not induce any ADCC nor CDC activities”. The CDC activity entry in the data set on HaCaT cells [3] is “could not induce any ADCC nor CDC activities”. For the same molecule, the “purity by SEC-HPLC after incubation” value in [4] is recorded as “around 99.9%”. Further, the “aggregation state after incubation” value in [4] (setting [5]) is recorded as “remained as single molecule”.

B2: hSM-05E: full-length humanized anti-γc antibody derived from SM-05E by framework patching (antibody, V domains shown)
VH: B1 VH with Y54N, N55T, A58V, R63K, L101R, N105Y
VL: B1 VL with L29I, H39E, S58N, T96S, T102M
Regarding B2, the “Ka” value was 333000 M⁻¹ s⁻¹ in the data set on common marmoset γc; 119000 M⁻¹ s⁻¹ in the data set with human γc proteins (Experiment 1); 327000 M⁻¹ s⁻¹ in the data set with human γc proteins (Experiment 2); 340000 M⁻¹ s⁻¹ with mouse γc; 22500 M⁻¹ s⁻¹ in the data set with cynomolgus γc. The “Kdis” value in the data set on common marmoset γc came to 0.00175 s⁻¹; with human γc proteins (Experiment 1) it was 0.000573 s⁻¹; in the data set with human γc proteins (Experiment 2), 0.000944 s⁻¹; in the data set with mouse γc, 0.0252 s⁻¹; in the data set with cynomolgus γc it was 0.00683 s⁻¹. For the same molecule, in the data set with γc proteins from human, the “ELISA binding to human γc” value was “retained the binding affinity and specificity”. Besides, the “epitope competition between hSM-05A and hSM-05E” value with human γc protein is reported as “could compete on a similar epitope on the human γc protein”. The “ELISA binding to chimpanzee γc” value in data set [1] was “retained the binding affinity and specificity”. The “IL-21 induced p-STAT3, percentage of inhibition” value in the data set with IL-21 induced p-STAT3 was found to be 100%. Also, the “IL-15 induced p-STAT5, percentage of inhibition” value with IL-15 induced p-STAT5 is listed as 100%. The ADCC activity result in the data set with HaCaT cells [2] is on record as “could not induce any ADCC nor CDC activities”. Moreover, the CDC activity entry with HaCaT cells [3] was “could not induce any ADCC nor CDC activities”. Besides, the “purity by SEC-HPLC after incubation” value in data set [4] is on record as “around 80%”. For the same molecule, the fraction forming aggregates result in data set [4] (setting [5]) is “around 20%”.
